Four sequences from patent publication US10500249B2, “Compositions and methods for preventing or treating diseases, conditions, or processes characterized by aberrant fibroblast proliferation and extracellular matrix deposition” (MOERAE MATRIX, INC., priority 2014, dated 2019) can be followed below.

Assay in all cases: Kinase Profiling Assay
Type in all cases: biochemical
Common to all, as to details: 100 μM

Experiment [1] has as its target T1, EphA1 (h) (Homo sapiens, UniProt P21709).
T1 construct: purchased Millipore
T1 sequence (P21709 26-976): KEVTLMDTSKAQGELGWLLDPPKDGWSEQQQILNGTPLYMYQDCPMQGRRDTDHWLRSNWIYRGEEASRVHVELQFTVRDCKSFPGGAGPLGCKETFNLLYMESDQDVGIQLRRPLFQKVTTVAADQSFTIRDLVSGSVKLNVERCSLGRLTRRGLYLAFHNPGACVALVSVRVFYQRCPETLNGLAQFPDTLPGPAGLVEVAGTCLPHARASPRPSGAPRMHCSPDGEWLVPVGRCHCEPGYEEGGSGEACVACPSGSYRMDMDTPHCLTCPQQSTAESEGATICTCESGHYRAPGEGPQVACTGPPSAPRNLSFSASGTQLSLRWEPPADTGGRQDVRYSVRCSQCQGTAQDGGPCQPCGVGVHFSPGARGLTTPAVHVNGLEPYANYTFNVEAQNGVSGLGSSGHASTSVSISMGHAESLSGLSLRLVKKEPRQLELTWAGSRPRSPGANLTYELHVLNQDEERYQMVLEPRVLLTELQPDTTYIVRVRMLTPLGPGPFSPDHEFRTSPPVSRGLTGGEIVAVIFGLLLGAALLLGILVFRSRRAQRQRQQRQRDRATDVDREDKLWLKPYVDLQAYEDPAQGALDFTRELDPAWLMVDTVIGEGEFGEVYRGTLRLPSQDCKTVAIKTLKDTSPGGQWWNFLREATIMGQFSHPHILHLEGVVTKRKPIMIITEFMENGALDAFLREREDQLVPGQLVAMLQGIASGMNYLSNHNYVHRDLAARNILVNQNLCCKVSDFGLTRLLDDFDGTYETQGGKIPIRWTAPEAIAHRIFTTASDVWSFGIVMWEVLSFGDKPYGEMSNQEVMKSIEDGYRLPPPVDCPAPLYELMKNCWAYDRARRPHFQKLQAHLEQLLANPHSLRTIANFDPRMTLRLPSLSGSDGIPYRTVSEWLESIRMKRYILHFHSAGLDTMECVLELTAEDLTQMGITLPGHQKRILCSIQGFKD
As for the experimental part:
(§1) Every kinase activity measurement was conducted in duplicate.
(§2) Specifically, in these assays, a positively charged substrate is phosphorylated with a radiolabeled phosphate group from an ATP if the kinase is not inhibited by an inhibitor peptide. The positively charged substrate then is attracted to a negatively charged filter membrane, quantified with a scintillation counter, and compared to a 100% activity control.
(§3) In addition to determining the IC50 of the compound, the specificity of MK2 inhibitory peptides was assessed by examining activities of all 266 human kinases available for testing in the Millipore kinase profiling service (Table 1).

For experiment [2], the target named is T2, EphB1 (h) (Homo sapiens, UniProt P54762).
T2 sequence (P54762 18-984): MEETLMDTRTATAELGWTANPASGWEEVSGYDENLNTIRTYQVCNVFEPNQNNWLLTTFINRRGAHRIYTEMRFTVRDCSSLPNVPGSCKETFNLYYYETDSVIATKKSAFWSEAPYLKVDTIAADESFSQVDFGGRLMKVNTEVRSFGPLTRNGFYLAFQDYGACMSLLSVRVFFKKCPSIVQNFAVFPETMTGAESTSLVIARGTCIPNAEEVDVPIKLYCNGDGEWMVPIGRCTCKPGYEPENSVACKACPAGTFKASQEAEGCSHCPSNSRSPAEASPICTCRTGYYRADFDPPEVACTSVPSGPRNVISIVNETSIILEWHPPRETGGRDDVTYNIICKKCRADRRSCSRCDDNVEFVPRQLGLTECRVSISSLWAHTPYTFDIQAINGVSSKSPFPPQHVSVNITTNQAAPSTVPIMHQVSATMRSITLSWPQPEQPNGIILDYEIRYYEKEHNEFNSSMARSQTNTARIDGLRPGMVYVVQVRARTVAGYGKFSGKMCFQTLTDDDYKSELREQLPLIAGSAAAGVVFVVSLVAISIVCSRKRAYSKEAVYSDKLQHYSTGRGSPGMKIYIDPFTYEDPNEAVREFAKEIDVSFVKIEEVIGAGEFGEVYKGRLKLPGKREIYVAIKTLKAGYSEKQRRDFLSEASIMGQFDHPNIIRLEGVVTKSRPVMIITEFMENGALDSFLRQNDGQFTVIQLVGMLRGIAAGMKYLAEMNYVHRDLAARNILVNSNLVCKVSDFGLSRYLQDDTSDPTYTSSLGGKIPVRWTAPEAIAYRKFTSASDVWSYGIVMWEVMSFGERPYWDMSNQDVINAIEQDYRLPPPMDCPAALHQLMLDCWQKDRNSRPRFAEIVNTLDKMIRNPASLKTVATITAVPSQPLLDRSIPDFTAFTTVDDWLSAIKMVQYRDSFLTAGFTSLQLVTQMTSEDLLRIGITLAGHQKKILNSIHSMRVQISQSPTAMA
How it is done:
as §1, §2, §3

The target of experiment [3] is FGFR1 (h) (Homo sapiens, UniProt P11362). As for the experimental part: as §1, §2, §3
Sequence of FGFR1 (h) (P11362 22-822): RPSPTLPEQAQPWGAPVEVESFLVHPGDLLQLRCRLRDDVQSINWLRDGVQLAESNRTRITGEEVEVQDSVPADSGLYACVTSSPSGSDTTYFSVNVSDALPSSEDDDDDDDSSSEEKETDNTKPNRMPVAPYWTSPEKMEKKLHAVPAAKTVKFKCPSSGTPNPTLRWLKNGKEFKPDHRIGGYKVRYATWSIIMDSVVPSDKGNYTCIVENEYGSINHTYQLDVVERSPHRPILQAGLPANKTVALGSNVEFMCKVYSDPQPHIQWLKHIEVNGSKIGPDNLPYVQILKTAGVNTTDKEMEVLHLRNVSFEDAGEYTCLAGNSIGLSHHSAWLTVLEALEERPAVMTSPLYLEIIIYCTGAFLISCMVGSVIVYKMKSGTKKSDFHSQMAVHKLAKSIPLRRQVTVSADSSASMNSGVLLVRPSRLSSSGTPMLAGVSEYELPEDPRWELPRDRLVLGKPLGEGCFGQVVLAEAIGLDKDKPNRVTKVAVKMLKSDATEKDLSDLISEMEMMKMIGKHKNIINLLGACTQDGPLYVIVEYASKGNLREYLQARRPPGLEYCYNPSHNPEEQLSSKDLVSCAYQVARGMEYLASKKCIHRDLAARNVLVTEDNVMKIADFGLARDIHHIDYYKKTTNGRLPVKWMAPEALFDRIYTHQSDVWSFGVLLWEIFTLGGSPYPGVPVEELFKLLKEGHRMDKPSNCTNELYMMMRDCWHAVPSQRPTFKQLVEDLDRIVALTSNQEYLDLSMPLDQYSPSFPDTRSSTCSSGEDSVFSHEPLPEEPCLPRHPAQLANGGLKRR
For experiment [4], the target named is T3, MLK1 (h) (Homo sapiens, UniProt P80192).
T3 construct: purchased Millipore
T3 sequence (P80192 whole entry): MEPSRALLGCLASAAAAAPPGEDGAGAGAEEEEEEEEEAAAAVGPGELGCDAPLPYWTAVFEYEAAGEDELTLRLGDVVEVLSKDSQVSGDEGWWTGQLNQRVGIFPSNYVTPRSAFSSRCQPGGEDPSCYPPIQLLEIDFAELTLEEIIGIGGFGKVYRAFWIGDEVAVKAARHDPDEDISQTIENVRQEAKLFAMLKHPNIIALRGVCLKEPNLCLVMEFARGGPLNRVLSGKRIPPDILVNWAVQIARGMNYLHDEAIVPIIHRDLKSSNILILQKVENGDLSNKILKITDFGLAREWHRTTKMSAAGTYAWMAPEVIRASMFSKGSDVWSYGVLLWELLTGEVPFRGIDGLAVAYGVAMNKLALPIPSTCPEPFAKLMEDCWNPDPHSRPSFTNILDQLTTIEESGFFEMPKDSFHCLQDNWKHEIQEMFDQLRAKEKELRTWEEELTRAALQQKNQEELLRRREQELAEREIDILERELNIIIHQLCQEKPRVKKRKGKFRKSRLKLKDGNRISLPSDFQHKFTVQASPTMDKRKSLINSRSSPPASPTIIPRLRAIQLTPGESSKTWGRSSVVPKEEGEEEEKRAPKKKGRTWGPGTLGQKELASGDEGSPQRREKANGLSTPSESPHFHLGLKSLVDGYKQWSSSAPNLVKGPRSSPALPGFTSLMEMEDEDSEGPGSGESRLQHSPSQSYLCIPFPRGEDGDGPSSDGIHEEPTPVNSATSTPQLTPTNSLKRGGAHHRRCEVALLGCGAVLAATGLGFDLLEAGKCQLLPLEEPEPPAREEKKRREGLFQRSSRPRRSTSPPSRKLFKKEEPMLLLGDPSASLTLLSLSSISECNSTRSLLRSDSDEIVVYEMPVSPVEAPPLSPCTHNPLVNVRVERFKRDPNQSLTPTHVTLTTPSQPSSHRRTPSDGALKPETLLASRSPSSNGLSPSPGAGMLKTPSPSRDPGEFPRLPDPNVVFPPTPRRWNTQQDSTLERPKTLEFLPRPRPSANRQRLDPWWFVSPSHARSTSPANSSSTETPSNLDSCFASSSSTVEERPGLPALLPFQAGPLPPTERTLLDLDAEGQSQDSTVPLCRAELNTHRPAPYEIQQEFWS
How it is done: as §1, §2, §3

The target of experiment [5] is T4, PrKX (h) (Homo sapiens, UniProt P51817).
T4 sequence (P51817 1-358): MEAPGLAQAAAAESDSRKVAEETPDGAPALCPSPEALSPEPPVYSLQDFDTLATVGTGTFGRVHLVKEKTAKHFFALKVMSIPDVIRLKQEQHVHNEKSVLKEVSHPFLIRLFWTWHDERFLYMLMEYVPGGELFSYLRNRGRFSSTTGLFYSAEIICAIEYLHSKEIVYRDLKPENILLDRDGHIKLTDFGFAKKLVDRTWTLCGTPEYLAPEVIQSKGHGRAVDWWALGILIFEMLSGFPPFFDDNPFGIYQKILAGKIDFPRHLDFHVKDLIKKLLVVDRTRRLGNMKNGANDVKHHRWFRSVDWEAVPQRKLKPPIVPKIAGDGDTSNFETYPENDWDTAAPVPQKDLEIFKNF
How it is done: as §1, §2, §3

As for FAKLAARLYRKALARQLGVAA [MMI-0300], the “% activity” value in experiment [1] is 73%; in experiment [2], 44%; in experiment [3], 55%; in experiment [4], 40%; in experiment [5], 61%.

As for KAFAKLAARLYRKALARQLGVAA [MMI-0400], the “% activity” value in experiment [1] came out at 61%; in experiment [2], 58%; in experiment [3], 59%; in experiment [4] it was 33%; in experiment [5], 76%.

For “YARAAARQARAKALNRQLGVA (Mammalian) [MMI-0200]”, the figures for the “% activity” value in experiment [2], in experiment [3] and in experiment [4] were 95%, 97% and 84%, respectively.

Consider “HRRIKAWLKKIKALARQLGVAA (Mammalian) [MMI-0500]”, for which the “% activity” value in experiment [1] is 40%; in experiment [2], 37%; in experiment [3], 18%; in experiment [4], 43%; in experiment [5] it was 57%.
